Assay results taken from patent US20180155430A1.

Experiments:
[1] = target: human PD-1 (Programmed Death-1) (human) (UniProt Q15116); test: cell-based or functional assay
[2] = target: human PD-L1 (PD-ligand 1) (human) (UniProt Q9NZQ7); test: cell-based or functional assay
UniProt Q9NZQ7, sequence (Q9NZQ7 19-290 limits assumed): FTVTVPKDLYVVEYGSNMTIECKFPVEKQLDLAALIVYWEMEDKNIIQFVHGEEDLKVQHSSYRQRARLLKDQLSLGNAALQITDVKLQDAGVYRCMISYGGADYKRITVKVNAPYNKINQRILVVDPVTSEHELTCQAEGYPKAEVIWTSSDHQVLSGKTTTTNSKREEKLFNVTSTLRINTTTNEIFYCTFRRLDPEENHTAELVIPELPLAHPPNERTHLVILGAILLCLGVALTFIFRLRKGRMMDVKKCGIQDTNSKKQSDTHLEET

UniProt Q15116, sequence (Q15116 other isoform, or with tags, fused parts or gaps limits assumed): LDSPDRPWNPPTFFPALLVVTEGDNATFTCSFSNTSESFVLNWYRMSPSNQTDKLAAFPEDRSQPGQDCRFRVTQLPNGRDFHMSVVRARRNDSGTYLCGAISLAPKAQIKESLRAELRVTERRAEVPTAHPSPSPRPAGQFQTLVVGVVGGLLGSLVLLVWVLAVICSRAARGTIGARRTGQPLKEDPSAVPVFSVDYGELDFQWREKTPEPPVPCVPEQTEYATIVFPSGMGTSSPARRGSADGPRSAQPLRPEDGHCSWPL

| Molecule | expansion of HCV-specific CFSE-low tetramer+ CD8+ T cells, 6 days with cognate peptide and IL-2 [1] | expansion of HCV-specific CFSE-low tetramer+ CD8+ T cells, 6 days with cognate peptide and IL-2 [2] | fold increase in B*4201 TL9 tetramer+ CD8+ T cells, 6-day CFSE proliferation assay of human PBMC with TL9 peptide plus antibody (peptide alone: 4.8-fold) [2] | fold increase in frequency of EBV or CMV-specific CD8 T cells, 6-day CFSE assay, peptide plus antibody against peptide alone [2] | percentage of B*4201 TL9-specific CD8+ T cells after 6-day stimulation with peptide [2] |
| --- | --- | --- | --- | --- | --- |
| anti-human PD-1 monoclonal antibody EH12 | 4 fold |  |  |  |  |
| anti-human PD-L1 monoclonal antibody 29E.2A3 (antibody, from another filing, mouse IgG2b, V domains shown) VH: EVQLQQSGPELVKPGASVKMSCKASGYTFTSYVMHWVKQKPGQGLEWIGYVNPFNDGTKYNEMFKGKATLTSDKSSSTAYMELSSLTSEDSAVYYCARQAWGYPWGQGTLVTVSA VL: DIVLTQSPASLAVSLGQRATISCRATESVEYYGTSLVQWYQQKPGQPPKLLIYAASSVDSGVPARFSGSGSGTDFSLTIHPVEEDDIAMYFCQQSRRVPYTFGGGTKLEIK |  | 4 fold | 10.3 fold | < 3.5 fold | 12.4% |
